Measured values published in patent publication US20080213284A1.

How the values were obtained:
[1] = biological target: receptors in NIH 3T3 cells (not identified in the filing); assay: flow cytometry on NIH 3T3 cells, FITC anti-human IgG Fc
[2] = biological target: receptor on VERO E6 cells (not identified in the filing); assay: flow cytometry on VERO E6 cells, FITC anti-human IgG Fc
[3] = biological target: receptor on VERO E6 cells (not identified in the filing)

Row | Substance | concentration at which it bound [1] [µg/mL] | concentration at which it bound [2] [µg/mL] | avidity [3] [µM]
1 | S3-Fc fusion protein (from UniProt P59594 667-999) | 0.1 |  | 
2 | S1-Fc fusion protein (from UniProt P59594 14-333) |  | 1 | 
3 | S2-Fc fusion protein (from UniProt P59594 334-666) | 1 | 0.1 | 1
